How the values were obtained:
Test in all cases: IP/MS, LZTR1 wild type-FLAG, U87
ASXL1 = ASXL1 (human, UniProt Q8IXJ9 1-1541, limits assumed)
Outline: (§1)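 Gel slices were reduced with 5 mM DTT, alkylated with 11 mM IAA and digested overnight at 37° C. with trypsin. Peptides were analysed on an Orbitrap Fusion Tribrid by LC-MS/MS.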

AMBRA1 = molecular target: T1, AMBRA1 (human, UniProt Q9C0C7 1-1298, limits assumed)
T1 sequence (looked up): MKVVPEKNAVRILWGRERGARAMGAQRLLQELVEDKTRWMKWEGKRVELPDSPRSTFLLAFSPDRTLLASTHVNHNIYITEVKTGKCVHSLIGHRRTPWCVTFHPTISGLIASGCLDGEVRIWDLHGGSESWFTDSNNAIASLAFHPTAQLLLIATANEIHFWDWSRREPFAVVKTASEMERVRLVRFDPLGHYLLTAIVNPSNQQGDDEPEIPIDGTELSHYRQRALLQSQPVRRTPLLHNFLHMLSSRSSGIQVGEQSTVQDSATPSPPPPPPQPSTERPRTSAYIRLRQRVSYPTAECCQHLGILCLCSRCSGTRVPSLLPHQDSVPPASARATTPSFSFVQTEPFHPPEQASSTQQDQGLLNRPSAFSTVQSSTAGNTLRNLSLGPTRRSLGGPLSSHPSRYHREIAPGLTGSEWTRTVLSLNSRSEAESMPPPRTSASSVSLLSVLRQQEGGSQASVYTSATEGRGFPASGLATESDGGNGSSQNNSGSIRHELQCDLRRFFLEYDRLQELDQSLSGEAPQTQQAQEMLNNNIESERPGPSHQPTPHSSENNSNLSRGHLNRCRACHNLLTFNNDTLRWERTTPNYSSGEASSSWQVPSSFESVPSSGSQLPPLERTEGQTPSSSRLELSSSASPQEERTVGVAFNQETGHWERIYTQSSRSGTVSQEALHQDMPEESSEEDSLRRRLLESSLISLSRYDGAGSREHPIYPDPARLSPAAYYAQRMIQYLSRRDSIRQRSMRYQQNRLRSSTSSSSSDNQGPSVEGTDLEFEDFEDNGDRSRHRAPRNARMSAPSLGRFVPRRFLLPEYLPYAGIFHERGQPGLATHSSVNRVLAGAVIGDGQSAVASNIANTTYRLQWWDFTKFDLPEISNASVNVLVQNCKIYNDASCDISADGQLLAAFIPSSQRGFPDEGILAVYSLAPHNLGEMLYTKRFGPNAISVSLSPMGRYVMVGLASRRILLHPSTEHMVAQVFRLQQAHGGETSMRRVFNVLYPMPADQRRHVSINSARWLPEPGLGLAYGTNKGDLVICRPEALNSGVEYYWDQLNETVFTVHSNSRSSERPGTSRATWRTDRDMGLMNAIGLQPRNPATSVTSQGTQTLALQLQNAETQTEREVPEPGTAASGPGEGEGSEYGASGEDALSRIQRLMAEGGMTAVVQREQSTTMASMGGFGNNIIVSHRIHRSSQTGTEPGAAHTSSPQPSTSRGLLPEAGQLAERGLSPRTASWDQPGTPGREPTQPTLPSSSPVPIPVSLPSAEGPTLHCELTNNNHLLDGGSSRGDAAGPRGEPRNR
Outline: as §1

SEC24D = molecular target: T2, SEC24D (human, UniProt O94855 1-1032, limits assumed)
T2 sequence (looked up): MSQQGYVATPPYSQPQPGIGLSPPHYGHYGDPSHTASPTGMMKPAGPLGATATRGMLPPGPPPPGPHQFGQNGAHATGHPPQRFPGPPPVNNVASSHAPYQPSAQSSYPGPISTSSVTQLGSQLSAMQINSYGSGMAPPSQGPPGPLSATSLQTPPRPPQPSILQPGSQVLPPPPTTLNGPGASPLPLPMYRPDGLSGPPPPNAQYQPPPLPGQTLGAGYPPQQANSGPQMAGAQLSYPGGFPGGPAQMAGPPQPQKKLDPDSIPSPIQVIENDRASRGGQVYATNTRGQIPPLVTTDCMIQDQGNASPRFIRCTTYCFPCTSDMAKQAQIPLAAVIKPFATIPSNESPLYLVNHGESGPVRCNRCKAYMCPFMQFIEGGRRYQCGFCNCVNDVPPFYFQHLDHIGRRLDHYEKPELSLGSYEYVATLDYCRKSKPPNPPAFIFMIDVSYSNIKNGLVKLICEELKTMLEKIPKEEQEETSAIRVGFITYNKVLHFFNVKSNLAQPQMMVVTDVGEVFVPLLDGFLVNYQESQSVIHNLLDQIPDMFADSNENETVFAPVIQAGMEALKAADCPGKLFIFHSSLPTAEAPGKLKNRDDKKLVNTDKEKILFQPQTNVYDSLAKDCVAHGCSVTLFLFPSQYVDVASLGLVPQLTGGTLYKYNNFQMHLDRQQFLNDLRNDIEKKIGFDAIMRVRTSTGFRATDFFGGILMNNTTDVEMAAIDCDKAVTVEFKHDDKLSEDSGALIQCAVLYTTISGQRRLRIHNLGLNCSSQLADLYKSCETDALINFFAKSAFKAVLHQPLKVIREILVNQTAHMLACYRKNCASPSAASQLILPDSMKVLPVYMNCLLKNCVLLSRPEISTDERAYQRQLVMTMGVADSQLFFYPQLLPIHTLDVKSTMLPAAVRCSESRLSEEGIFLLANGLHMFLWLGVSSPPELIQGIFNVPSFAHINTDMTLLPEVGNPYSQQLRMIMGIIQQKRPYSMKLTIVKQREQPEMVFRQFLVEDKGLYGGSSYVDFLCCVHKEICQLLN
Outline: as §1

Measured: binding result

Sequence of ASXL1 (Q8IXJ9 whole entry, the tested form may be a part): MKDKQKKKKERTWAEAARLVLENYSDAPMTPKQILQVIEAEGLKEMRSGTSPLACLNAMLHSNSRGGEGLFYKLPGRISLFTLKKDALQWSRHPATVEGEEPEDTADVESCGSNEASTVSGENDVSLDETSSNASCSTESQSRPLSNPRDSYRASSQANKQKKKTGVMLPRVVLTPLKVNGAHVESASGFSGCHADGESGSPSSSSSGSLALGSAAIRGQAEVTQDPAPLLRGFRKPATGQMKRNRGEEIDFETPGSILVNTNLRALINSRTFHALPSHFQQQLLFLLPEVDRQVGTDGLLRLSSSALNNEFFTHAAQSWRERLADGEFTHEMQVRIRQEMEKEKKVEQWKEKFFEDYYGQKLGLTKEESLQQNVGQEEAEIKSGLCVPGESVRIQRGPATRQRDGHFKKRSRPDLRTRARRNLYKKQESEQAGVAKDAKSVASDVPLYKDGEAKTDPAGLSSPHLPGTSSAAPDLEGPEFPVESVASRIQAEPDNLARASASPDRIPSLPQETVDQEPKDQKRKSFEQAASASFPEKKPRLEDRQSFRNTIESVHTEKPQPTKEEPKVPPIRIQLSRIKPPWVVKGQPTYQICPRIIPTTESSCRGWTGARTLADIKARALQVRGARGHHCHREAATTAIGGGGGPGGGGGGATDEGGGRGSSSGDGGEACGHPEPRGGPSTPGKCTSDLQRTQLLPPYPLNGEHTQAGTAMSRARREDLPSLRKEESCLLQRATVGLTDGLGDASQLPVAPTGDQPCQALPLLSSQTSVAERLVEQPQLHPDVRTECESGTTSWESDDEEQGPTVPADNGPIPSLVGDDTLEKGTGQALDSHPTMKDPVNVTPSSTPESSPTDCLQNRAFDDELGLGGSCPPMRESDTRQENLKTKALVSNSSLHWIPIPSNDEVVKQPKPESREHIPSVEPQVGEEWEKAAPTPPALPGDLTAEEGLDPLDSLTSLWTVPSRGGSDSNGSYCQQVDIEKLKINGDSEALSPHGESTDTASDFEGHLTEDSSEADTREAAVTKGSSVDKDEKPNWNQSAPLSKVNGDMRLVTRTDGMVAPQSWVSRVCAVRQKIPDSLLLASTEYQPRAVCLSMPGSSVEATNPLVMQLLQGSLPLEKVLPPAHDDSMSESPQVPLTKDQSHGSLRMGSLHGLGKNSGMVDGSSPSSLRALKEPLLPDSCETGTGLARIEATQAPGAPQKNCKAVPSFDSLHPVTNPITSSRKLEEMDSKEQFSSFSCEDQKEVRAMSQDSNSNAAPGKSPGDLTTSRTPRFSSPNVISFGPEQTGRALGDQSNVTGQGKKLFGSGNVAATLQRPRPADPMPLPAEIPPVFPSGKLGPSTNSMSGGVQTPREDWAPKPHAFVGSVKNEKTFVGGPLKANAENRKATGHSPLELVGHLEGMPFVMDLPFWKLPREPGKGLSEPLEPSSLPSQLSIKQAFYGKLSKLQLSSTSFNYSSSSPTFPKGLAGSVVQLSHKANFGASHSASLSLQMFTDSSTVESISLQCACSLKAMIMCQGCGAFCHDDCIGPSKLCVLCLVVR

B1: LZTR1-FLAG (other, human, UniProt Q8N653 1-840, looked up)
chain: MAGPGSTGGQIGAAALAGGARSKVAPSVDFDHSCSDSVEYLTLNFGPFETVHRWRRLPPCDEFVGARRSKHTVVAYKDAIYVFGGDNGKTMLNDLLRFDVKDCSWCRAFTTGTPPAPRYHHSAVVYGSSMFVFGGYTGDIYSNSNLKNKNDLFEYKFATGQWTEWKIEGRLPVARSAHGATVYSDKLWIFAGYDGNARLNDMWTIGLQDRELTCWEEVAQSGEIPPSCCNFPVAVCRDKMFVFSGQSGAKITNNLFQFEFKDKTWTRIPTEHLLRGSPPPPQRRYGHTMVAFDRHLYVFGGAADNTLPNELHCYDVDFQTWEVVQPSSDSEVGGAEVPERACASEEVPTLTYEERVGFKKSRDVFGLDFGTTSAKQPTQPASELPSGRLFHAAAVISDAMYIFGGTVDNNIRSGEMYRFQFSCYPKCTLHEDYGRLWESRQFCDVEFVLGEKEECVQGHVAIVTARSRWLRRKITQARERLAQKLEQEAAPVPREAPGVAAGGARPPLLHVAIREAEARPFEVLMQFLYTDKIKYPRKGHVEDVLLIMDVYKLALSFQLCRLEQLCRQYIEASVDLQNVLVVCESAARLQLSQLKEHCLNFVVKESHFNQVIMMKEFERLSSPLIVEIVRRKQQPPPRTPLDQPVDIGTSLIQDMKAYLEGAGAEFCDITLLLDGHPRPAHKAILAARSSYFEAMFRSFMPEDGQVNISIGEMVPSRQAFESMLRYIYYGEVNMPPEDSLYLFAAPYYYGFYNNRLQAYCKQNLEMNVTVQNVLQILEAADKTQALDMKRHCLHIIVHQFTKVSKLPTLRSLSQQLLLDIIDSLASHISDKQCAELGADI
notes: Expressed in HEK 293T, HeLa or U87 cells; used as cell lysate; also called LZTR1 wild type-FLAG; LZTR1 WT; not shown: FLAG tag at the C-terminus
binds: all assays above

— patent publication US20250262210A1 (TRUSTEES OF COLUMBIA UNIVERSITY IN THE CITY OF NEW YORK, published 2025)
